# According to patent US10905770B2, “Topical delivery of therapeutic agents using cell-penetrating peptides for the treatment of age-related macular degeneration and other eye diseases” (priority 2017, dated 2021):
# Entries after “also recorded” stand apart in the source; their conditions may differ.
# Experiments:
# [1] = Procedure: (§1) Lutein was dissolved in DMSO (10 mg/mL) and titrated into water. […] As a proxy for topical delivery into the eye by eye drop, 50 μL of lutein plus hexa-arginine (SEQ ID NO: 258) or lutein alone was applied to one side of the outer shell membrane of a chicken egg, and the material that crossed the membrane in water was collected after 2 minutes. The level of lutein was measured by absorbance. The experiment was conducted three times (n=3).
# Zeaxanthin was dissolved in DMF (10 mg/mL) and titrated into water. […] As a proxy for topical delivery into the eye by eye drop, 50 μL of zeaxanthin plus hexa-arginine (SEQ ID NO: 258) or zeaxanthin alone was applied to one side of the outer shell membrane of a chicken egg, and the material that crossed the membrane in water was collected after 2 minutes. The level of zeaxanthin was measured by absorbance. The experiment was conducted three times (n=3).
# as §1, with “into water, zeaxanthin was dissolved in DMF (10 mg/mL) and titrated into water, and then lutein and zeaxanthin were mixed in a 1:1 ratio.” for “into water.”, “lutein and zeaxanthin” for “lutein”, “NO: 258),” for “NO: 258)”, “lutein and zeaxanthin without CPP,” for “lutein alone”
# Dexamethasone was dissolved in DMSO and titrated into water. […] As a proxy for topical delivery into the eye by eye drop, 50 μL of dexamethasone plus hexa-arginine (SEQ ID NO: 258) or dexamethasone alone was applied to one side of the outer shell membrane of a chicken egg, and the material that crossed the membrane in water was collected after 2 minutes. The presence of dexamethasone was detected by electrospray mass spectroscopy.
# Tacrolimus was dissolved in DMSO and titrated into water. […] As a proxy for topical delivery into the eye by eye drop, 50 μL of tacrolimus plus hexa-arginine (SEQ ID NO: 258) or tacrolimus alone was applied to one side of the outer shell membrane of a chicken egg, and the material that crossed the membrane in water was collected after 2 minutes. The presence of tacrolimus was detected by electrospray mass spectroscopy.
# Adalimumab was fluorescently tagged and purified. […] As a proxy for topical delivery into the eye by eye drop, 50 μL of adalimumab plus hexa-arginine (SEQ ID NO: 258) or adalimumab alone was applied to one side of the outer shell membrane of a chicken egg, and the material that crossed the membrane in PBS was collected after 2 minutes. The level of adalimumab was measured by fluorescence. The experiment was conducted three times (n=3).
# As a proxy for topical delivery into the eye by eye drop, 50 μL of glucose plus hexa-arginine (SEQ ID NO: 258) or glucose alone was applied to one side of the outer shell membrane of a chicken egg, and the material that crossed the membrane in water was collected after 2 minutes. The presence of glucose was detected by electrospray mass spectroscopy.
# As a proxy for topical delivery into the eye by eye drop, 50 μL of BDNF plus hexa-arginine (SEQ ID NO: 258) or BDNF alone was applied to one side of the outer shell membrane of a chicken egg, and the material that crossed the membrane in PBS was collected after 2 minutes. The level of BDNF was measured by ELISA. The experiment was conducted three times (n=3).
# As a proxy for topical delivery into the eye by eye drop, 50 μL of GDNF plus hexa-arginine (SEQ ID NO: 258) or GDNF alone was applied to one side of the outer shell membrane of a chicken egg, and the material that crossed the membrane in PBS was collected after 2 minutes. The level of GDNF was measured by ELISA.
# [2] = tested on: rat eye in vivo; assay: CPP-assisted delivery into rat eye in vivo
# Procedure: An eye drop of 50 μL of bevacizumab plus hexa-arginine (SEQ ID NO: 258) was applied topically to the front of one of the eyes of a live rat, and then the rat was sacrificed 60 minutes after topical application.
# [3] = tested on: geographic atrophy (GA); conditions: vs placebo, cited from earlier work
molecule,measurement,setting,value
"C[C@@H]1C[C@H]2[C@@H]3CCC4=CC(=O)C=C[C@]4(C)[C@@]3(F)[C@@H](O)C[C@]2(C)[C@@]1(O)C(=O)CO [dexamethasone, reference compound]",crossing of the egg shell membrane (electrospray mass spectroscopy),[1],did not cross
CC1=C[C@H](O)CC(C)(C)[C@H]1/C=C/C(C)=C/C=C/C(C)=C/C=C/C=C(C)/C=C/C=C(C)/C=C/C1=C(C)C[C@@H](O)CC1(C)C [lutein],crossing of the egg shell membrane,[1],did not cross
"C=CC[C@@H]1/C=C(\C)C[C@H](C)C[C@H](OC)[C@H]2O[C@@](O)(C(=O)C(=O)N3CCCC[C@H]3C(=O)O[C@H](/C(C)=C/[C@@H]3CC[C@@H](O)[C@H](OC)C3)[C@H](C)[C@@H](O)CC1=O)[C@H](C)C[C@@H]2OC [tacrolimus, reference compound]",crossing of the egg shell membrane (electrospray mass spectroscopy),[1],did not cross
CC1=C(/C=C/C(C)=C/C=C/C(C)=C/C=C/C=C(C)/C=C/C=C(C)/C=C/C2=C(C)C[C@@H](O)CC2(C)C)C(C)(C)C[C@H](O)C1 [zeaxanthin],crossing of the egg shell membrane,[1],a very small amount
adalimumab,amount that crossed the membrane with hexa-arginine compared with without,[1],markedly greater
same,fluorescence of material that crossed the egg shell membrane,[1],1359±3
bevacizumab: anti-VEGF antibody,delivery into the posterior segment (the vitreous and the retina) of the treated eye,"[2]; 50 μL eye drop, bevacizumab 25 mg/mL plus hexa-arginine 5 mg/mL, 60 minutes, human IgG ELISA",entered; also recorded: delivered
same,level in the bloodstream,[2]; 60 minutes after topical application,not detected
same,level in the fellow untreated eye,"[2]; 60 minutes after topical application to the other eye, human IgG ELISA",not detected
lampalizumab: antigen-binding fragment (Fab) of a humanized monoclonal antibody targeting CFD,"reduction in the rate of GA enlargement, and hence the area of GA, in the injected eye","[3]; monthly intravitreal injections of 10 mg for 18 months, fundus autofluorescence",about 20%
same,"reduction in the GA growth rate, and hence the area of GA","[3]; subgroup positive for CFI mutations, monthly intravitreal 10 mg for 18 months",about 44%
"BDNF: brain-derived neurotrophic factor (protein, UniProt P23560 19-247, looked up) Neurotrophic factor BDNF …: APMKEANIRGQGGLAYPGVRTHGTLESVNGPKAGSRGLTSLADTFEHVIEELLDEDQKVRPNEENNKDADLYTSRVMLSSQVPLEPPLLFLLEEYKNYLDAANMSMRVRRHSDPARRGELSVCDSISEWVTAADKKTAVDMSGGTVTVLEKVPVSKGQLKQYFYETKCNPMGYTKEGCRGIDKRHWNSQCRTTQSYVRALTMDSKKRIGWRFIRIDTSCVCTLTIKRGR",crossing of the egg shell membrane,[1],did not cross
"GDNF: glial cell-derived neurotrophic factor (protein, UniProt P39905 78-211, looked up) Glial cell line-derived …: SPDKQMAVLPRRERNRQAAAANPENSRGKGRRGQRGKNRGCVLTAIHLNVTDLGLGYETKEELIFRYCSGSCDAAETTYDKILKNLSRNRRLVSDKVGQACCRPIAFDDDLSFLDDNLVYHILRKHSAKRCGCI",crossing of the egg shell membrane,[1],did not cross
